Results: paper doi:10.1101/2024.10.04.616749, “Structural basis for a nucleoporin exportin complex between RanBP2, SUMO1-RanGAP1, the E2 Ubc9, Crm1 and the Ran GTPase” (bioRxiv, 2024)
Each block holds one binder with its values, some of them ahead of it.

Columns and labels:
Conditions in all cases: both partners purified
[1] = target: T1, Crm1 (full-length human) (human, UniProt O14980 1-1071); assay: SEC; analytical size exclusion chromatography of complexes I, II and III assembled from a RanBP2 variant, SUMO1-RanGAP1, Ubc9, Crm1 and Ran^Q69L(GTP); fractions on SDS-PAGE
T1 construct: Crm1 (exportin-1), human, full length; also called exportin Crm1; source: E. coli BL21(DE3) SoluBL21 with Codon Plus (RIL) plasmid, purified (Ni-NTA, Ulp1 cleavage, SEC, MonoQ); not shown: His6-Smt3, N-terminal, cleaved

[2] = target: Ran^Q69L(GTP) (human, UniProt P62826 1-216, Q69L); assay: as above
[3] = target: T1, Crm1 (full-length human); assay: cryo-EM structure; purified RanBP2^RBD4/SUMO1^Q94P-RanGAP1/Ubc9 incubated with excess Crm1 and Ran^Q69L(GTP), gel filtration in 20 mM HEPES pH 7.4, 110 mM potassium acetate, 2 mM magnesium acetate, 1 mM TCEP; lightly crosslinked with 250 uM BS3 for 30 min; 0.1% CHAPSO

T1 sequence (O14980 whole entry): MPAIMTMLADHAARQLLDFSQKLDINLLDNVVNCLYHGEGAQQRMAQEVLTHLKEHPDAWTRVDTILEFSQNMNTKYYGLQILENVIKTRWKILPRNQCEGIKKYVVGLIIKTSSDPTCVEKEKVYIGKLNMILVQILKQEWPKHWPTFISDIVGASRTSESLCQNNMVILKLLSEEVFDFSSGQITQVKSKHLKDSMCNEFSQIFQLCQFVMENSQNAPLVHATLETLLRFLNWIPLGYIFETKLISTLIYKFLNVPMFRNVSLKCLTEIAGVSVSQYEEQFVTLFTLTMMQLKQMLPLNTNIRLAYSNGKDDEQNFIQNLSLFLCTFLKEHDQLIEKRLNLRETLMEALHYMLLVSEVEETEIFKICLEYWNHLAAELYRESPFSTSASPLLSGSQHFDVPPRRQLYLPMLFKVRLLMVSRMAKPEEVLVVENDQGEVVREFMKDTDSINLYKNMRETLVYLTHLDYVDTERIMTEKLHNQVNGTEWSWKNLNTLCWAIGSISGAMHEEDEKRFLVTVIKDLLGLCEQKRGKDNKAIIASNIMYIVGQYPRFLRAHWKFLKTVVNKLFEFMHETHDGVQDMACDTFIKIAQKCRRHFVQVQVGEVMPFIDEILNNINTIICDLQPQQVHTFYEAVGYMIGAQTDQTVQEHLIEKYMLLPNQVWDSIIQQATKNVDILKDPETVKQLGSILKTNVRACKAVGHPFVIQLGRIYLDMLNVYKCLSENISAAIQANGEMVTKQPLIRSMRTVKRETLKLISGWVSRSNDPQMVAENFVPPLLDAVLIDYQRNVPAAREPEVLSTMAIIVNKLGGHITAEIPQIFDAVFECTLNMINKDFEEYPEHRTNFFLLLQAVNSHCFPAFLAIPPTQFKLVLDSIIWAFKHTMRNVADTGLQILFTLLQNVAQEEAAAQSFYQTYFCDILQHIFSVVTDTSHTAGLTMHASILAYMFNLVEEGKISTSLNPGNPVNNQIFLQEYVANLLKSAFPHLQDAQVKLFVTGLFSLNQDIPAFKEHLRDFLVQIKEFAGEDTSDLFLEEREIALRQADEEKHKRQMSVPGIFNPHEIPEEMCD

binding result [1]: binds | binding result [2]: binds
B1: RanBP2^2300–3060 (RanBP2^RBD3–4) (domain or fragment, human, UniProt P49792 2300-3060, looked up)
chain: TQEEERDGQYFEPVVPLPDLVEVSSGEENEQVVFSHRAKLYRYDKDVGQWKERGIGDIKILQNYDNKQVRIVMRRDQVLKLCANHRITPDMTLQNMKGTERVWLWTACDFADGERKVEHLAVRFKLQDVADSFKKIFDEAKTAQEKDSLITPHVSRSSTPRESPCGKIAVAVLEETTRERTDVIQGDDVADATSEVEVSSTSETTPKAVVSPPKFVFGSESVKSIFSSEKSKPFAFGNSSATGSLFGFSFNAPLKSNNSETSSVAQSGSESKVEPKKCELSKNSDIEQSSDSKVKNLFASFPTEESSINYTFKTPEKAKEKKKPEDSPSDDDVLIVYELTPTAEQKALATKLKLPPTFFCYKNRPDYVSEEEEDDEDFETAVKKLNGKLYLDGSEKCRPLEENTADNEKECIIVWEKKPTVEEKAKADTLKLPPTFFCGVCSDTDEDNGNGEDFQSELQKVQEAQKSQTEEITSTTDSVYTGGTEVMVPSFCKSEEPDSITKSISSPSVSSETMDKPVDLSTRKEIDTDSTSQGESKIVSFGFGSSTGLSFADLASSNSGDFAFGSKDKNFQWANTGAAVFGTQSVGTQSAGKVGEDEDGSDEEVVHNEDIHFEPIVSLPEVEVKSGEEDEEILFKERAKLYRWDRDVSQWKERGVGDIKILWHTMKNYYRILMRRDQVFKVCANHVITKTMELKPLNVSNNALVWTASDYADGEAKVEQLAVRFKTKEVADCFKKTFEECQQNLMKLQKGHVSLAAELSK
notes: RanBP2 (Nup358), human, residues 2300-3060: RBD3, FG1, IR1-M-IR2, FG2 and RBD4; pET28b with a thrombin-cleavable His6 tag; no cleavage is described for the protein of the analytical gel filtration runs (it was cleaved for the SUMO conjugation assays); source: E. coli BL21(DE3) Codon Plus (RIL), purified (Ni-NTA, SEC)

binding result [2]: binds | binding result [3]: binds
B2: RanBP2^2446–3060 (RanBP2^RBD4) (domain or fragment, human, UniProt P49792 2446-3060, looked up)
chain: DSLITPHVSRSSTPRESPCGKIAVAVLEETTRERTDVIQGDDVADATSEVEVSSTSETTPKAVVSPPKFVFGSESVKSIFSSEKSKPFAFGNSSATGSLFGFSFNAPLKSNNSETSSVAQSGSESKVEPKKCELSKNSDIEQSSDSKVKNLFASFPTEESSINYTFKTPEKAKEKKKPEDSPSDDDVLIVYELTPTAEQKALATKLKLPPTFFCYKNRPDYVSEEEEDDEDFETAVKKLNGKLYLDGSEKCRPLEENTADNEKECIIVWEKKPTVEEKAKADTLKLPPTFFCGVCSDTDEDNGNGEDFQSELQKVQEAQKSQTEEITSTTDSVYTGGTEVMVPSFCKSEEPDSITKSISSPSVSSETMDKPVDLSTRKEIDTDSTSQGESKIVSFGFGSSTGLSFADLASSNSGDFAFGSKDKNFQWANTGAAVFGTQSVGTQSAGKVGEDEDGSDEEVVHNEDIHFEPIVSLPEVEVKSGEEDEEILFKERAKLYRWDRDVSQWKERGVGDIKILWHTMKNYYRILMRRDQVFKVCANHVITKTMELKPLNVSNNALVWTASDYADGEAKVEQLAVRFKTKEVADCFKKTFEECQQNLMKLQKGHVSLAAELSK
notes: RanBP2 (Nup358), human, residues 2446-3060: FG1, IR1-M-IR2, FG2 and RBD4; pET28b with a thrombin-cleavable His6 tag; no cleavage is described for the protein used in cryo-EM reconstitutions and analytical gel filtration; also called RanBP2 FG1-IR1-M-IR2-FG2-RBD4 fragment; hRanBP2^RBD4; source: E. coli BL21(DE3) Codon Plus (RIL), purified (Ni-NTA, SEC)

binding result [1]: binds | binding result [2]: binds
B3: RanBP2^2300–2910 (RanBP2^RBD3) (domain or fragment, human, UniProt P49792 2300-2910, looked up)
chain: TQEEERDGQYFEPVVPLPDLVEVSSGEENEQVVFSHRAKLYRYDKDVGQWKERGIGDIKILQNYDNKQVRIVMRRDQVLKLCANHRITPDMTLQNMKGTERVWLWTACDFADGERKVEHLAVRFKLQDVADSFKKIFDEAKTAQEKDSLITPHVSRSSTPRESPCGKIAVAVLEETTRERTDVIQGDDVADATSEVEVSSTSETTPKAVVSPPKFVFGSESVKSIFSSEKSKPFAFGNSSATGSLFGFSFNAPLKSNNSETSSVAQSGSESKVEPKKCELSKNSDIEQSSDSKVKNLFASFPTEESSINYTFKTPEKAKEKKKPEDSPSDDDVLIVYELTPTAEQKALATKLKLPPTFFCYKNRPDYVSEEEEDDEDFETAVKKLNGKLYLDGSEKCRPLEENTADNEKECIIVWEKKPTVEEKAKADTLKLPPTFFCGVCSDTDEDNGNGEDFQSELQKVQEAQKSQTEEITSTTDSVYTGGTEVMVPSFCKSEEPDSITKSISSPSVSSETMDKPVDLSTRKEIDTDSTSQGESKIVSFGFGSSTGLSFADLASSNSGDFAFGSKDKNFQWANTGAAVFGTQSVGTQSAGKVGEDEDGSDEEVVHNEDI
notes: RanBP2 (Nup358), human, residues 2300-2910: contains only RBD3 of the two RBDs; pET28b with a thrombin-cleavable His6 tag; no cleavage is described for the analytical gel filtration runs; source: E. coli BL21(DE3) Codon Plus (RIL), purified (Ni-NTA, SEC)
